# System: fibrinogen
substance,measurement,value
human thrombin,SDS-PAGE analysis of hydrolysis of fibrinogen (Aα-strand),has a similar strength to human thrombin

# From patent publication US20110071283
